Assay results as given in publication PMC11192940 (2024).

Molecular target: GST-Rheb protein (UniProt Q15382 1-169)
Experiment: BLI

Sequence of GST-Rheb protein (Q15382 1-169): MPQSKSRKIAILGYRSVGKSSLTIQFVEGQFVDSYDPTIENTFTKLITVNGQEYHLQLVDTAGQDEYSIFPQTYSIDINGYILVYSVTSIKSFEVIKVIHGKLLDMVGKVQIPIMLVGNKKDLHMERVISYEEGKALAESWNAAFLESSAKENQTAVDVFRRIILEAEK

B1: His-IL-37d, recombinant human IL-37d protein with a TAT peptide (pET-22b-TAT-his-IL-37d; mature IL-37d 21–197aa) (other)
chain: YGRKKRRQRRREPQCCLEGPKVKNLNPKKFSIHDQDHKVLVLDSGNLIAVPDKNYIRPEIFFALASSLSSASAEKGSPILLGVSKGEFCLYCDKDKGQSHPSLQLKKEKLMKLAAQKESARRPFIFYRAQVGSWNMLESAAHPGWFICTSCNCNEPVGVTDKFENRKHIEFSFQPVCKAEMSPSEVSD
Q: B1 was tested. Which koff did it give?
A: Its koff is 0.00194 s⁻¹.
